Reference: PMC11093599 (The Journal of Clinical Investigation, 2024)

T1: AARS1^455 (Homo sapiens, UniProt P49588)
T1 construct: catalytic domain, residues 1-455, purified recombinant; tags and host only in supplement
T1 sequence (P49588 1-455): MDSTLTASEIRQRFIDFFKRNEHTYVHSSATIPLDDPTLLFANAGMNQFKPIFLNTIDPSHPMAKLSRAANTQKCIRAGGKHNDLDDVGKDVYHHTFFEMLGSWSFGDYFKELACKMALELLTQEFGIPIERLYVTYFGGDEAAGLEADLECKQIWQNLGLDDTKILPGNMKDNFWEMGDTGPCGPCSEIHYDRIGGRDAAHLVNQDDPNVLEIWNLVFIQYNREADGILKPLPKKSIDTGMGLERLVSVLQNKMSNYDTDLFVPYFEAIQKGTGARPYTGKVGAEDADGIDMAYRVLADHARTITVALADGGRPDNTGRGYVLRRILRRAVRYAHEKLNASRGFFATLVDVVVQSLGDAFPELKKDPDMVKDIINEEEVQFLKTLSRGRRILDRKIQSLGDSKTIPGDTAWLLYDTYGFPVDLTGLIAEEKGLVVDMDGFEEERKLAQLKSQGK

B1: AARS1 promoter probe (dsDNA)
DNA 1: CAGACAGGGCCTCGCTCTGTCGCCCAAGGAATGCAGTGTCACGATCAGGGCTCACTGCAG
DNA 2: CTGCAGTGAGCCCTGATCGTGACACTGCATTCCTTGGGCGACAGAGCGAGGCCCTGTCTG

Experiments:
[1] = molecular target: T1, AARS1^455; assay: in vitro histone lactylation, pan-Klac immunoblot / mass spectrometry; format: biochemical; conditions: lactate and ATP present; dose-dependent; construct in Supplemental Figure 1F not told
[2] = molecular target: YAP (1-291) (UniProt P46937 1-291); assay: EMSA; YAP alone; 10 mM Tris-HCl pH 7.5, 50 mM KCl, 1 mM DTT, 2% glycerol, 25 C, 1 h; conditions: protein: recombinant; tags: MBP
[3] = molecular target: TEAD1;YAP (1-291) (human?;human?, UniProt P28347;P46937 1-426;1-291, |); assay: EMSA; supershift of probe by YAP-TEAD1; 10 mM Tris-HCl pH 7.5, 50 mM KCl, 1 mM DTT, 2% glycerol, 25 C, 1 h; conditions: protein: recombinant;recombinant; (HS-TEAD1 in pull-down); copies: 1;1
[4] = molecular target: TEAD1 (UniProt P28347 1-426); assay: EMSA; 10 mM Tris-HCl pH 7.5, 50 mM KCl, 1 mM DTT, 2% glycerol, 25 C, 1 h; conditions: protein: recombinant; (HS-TEAD1 in pull-down)
TEAD1, sequence (P28347 whole entry): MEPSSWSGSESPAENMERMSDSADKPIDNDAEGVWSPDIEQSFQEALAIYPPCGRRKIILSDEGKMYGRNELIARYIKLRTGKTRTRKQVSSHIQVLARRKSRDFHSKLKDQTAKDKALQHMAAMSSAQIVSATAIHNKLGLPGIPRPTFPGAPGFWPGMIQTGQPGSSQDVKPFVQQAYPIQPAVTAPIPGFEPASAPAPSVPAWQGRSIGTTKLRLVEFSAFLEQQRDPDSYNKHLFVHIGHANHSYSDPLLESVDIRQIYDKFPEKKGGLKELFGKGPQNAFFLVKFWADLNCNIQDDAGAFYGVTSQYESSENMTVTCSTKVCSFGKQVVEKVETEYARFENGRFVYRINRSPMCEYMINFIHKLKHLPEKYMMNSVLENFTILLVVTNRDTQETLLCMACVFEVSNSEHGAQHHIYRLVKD

Row | Molecule | inhibition [1] | binding result [2] | binding result [3] | binding result [4]
1 | Nc1ncnc2c1ncn2[C@@H]1O[C@H](COP(=O)(O)O)[C@@H](O)[C@H]1O [AMP] | inclusion of PPi, AMP, and the synthetic lactyl-AMS | – | – | –
2 | O=P(O)(O)OP(=O)(O)O [PPi] | inclusion of PPi, AMP, and the synthetic lactyl-AMS | – | – | –
3 | B1 | – | no binding | binds | binds
